In patent US20220218785A1 (ALPINE IMMUNE SCIENCES, published 2022):
Substitutions are numbered along the chain they refer to. Names may count otherwise. Each block holds one molecule with its values, some of them ahead of it.

Legend:
human CD28 (human) = human CD28 (human) (UniProt P10747); experiment: flow cytometry, cells with human CD28; protein from CHO
human ICOS [1] = biological target: T1, human ICOS (human, UniProt Q9Y6W8 21-199); experiment: flow cytometry, cells with human ICOS; protein from CHO
T1 construct: whole, on cells
T1 sequence (looked up): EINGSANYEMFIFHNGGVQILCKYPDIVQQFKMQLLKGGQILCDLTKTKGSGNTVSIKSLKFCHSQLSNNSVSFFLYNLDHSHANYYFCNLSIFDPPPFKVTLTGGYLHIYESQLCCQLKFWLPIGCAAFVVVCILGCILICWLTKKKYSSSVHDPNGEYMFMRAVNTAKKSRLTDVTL

human CTLA-4 [2] = biological target: T2, human CTLA-4 (human, UniProt P16410 36-223); experiment: flow cytometry, cells with human CTLA-4; protein from CHO
T2 construct: whole, on cells
T2 sequence (P16410 36-223): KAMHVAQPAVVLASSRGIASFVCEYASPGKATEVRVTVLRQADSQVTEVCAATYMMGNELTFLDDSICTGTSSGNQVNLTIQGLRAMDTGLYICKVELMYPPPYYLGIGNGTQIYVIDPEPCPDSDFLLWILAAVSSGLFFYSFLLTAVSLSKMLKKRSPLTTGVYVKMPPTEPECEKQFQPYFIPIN

[3] = biological target: human CD28, full-length, on transfected cells (human) (UniProt P10747); experiment: flow cytometry on transfected HEK293 cells
[4] = biological target: CD80 (ligand of the blocking assay) (UniProt P33681); experiment: competition, flow cytometry: CD80 on CHO cells expressing CD28
CD80 (ligand of the blocking assay), sequence (P33681 35-242 limits assumed): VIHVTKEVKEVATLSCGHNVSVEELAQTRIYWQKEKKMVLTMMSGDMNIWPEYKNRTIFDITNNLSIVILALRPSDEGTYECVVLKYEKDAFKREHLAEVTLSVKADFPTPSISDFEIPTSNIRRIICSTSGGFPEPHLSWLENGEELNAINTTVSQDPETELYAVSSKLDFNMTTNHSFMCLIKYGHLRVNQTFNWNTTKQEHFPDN

[5] = biological target: CD86 labeled with AlexaFluor-647 (UniProt P42081); experiment: competition, flow cytometry: labelled CD86 on CHO cells expressing CD28
CD86 labeled with AlexaFluor-647, sequence (P42081 24-247 limits assumed): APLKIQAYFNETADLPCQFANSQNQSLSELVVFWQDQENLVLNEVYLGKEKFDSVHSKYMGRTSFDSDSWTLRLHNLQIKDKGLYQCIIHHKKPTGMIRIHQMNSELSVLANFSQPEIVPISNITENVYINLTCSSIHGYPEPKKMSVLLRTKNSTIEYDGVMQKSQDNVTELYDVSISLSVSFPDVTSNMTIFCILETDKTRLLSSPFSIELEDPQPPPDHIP

human CD28 = biological target: T3, human CD28 (human, UniProt P10747 19-220); experiment: flow cytometry, Expi293 cells with human CD28
T3 construct: whole, on cells
Excerpt: (§1) Expi293 cells transfected with cognate binding partners, human CD28, ICOS and CTLA4, were used as target cells in binding studies.

human ICOS [6] = biological target: T1, human ICOS; experiment: flow cytometry, Expi293 cells with human ICOS
Procedure: Binding studies were carried out on transfected HEK293 cells generated to express the full-length mammalian (human) surface ligands, CD28, ICOS or CTLA-4, using a transient transfection system (Life Technologies, USA). As a control, binding to mock (non-transfected) cells also was assessed. For staining by flow cytometry, 200,000 cells of appropriate transient transfection or negative control (mock) were plated in 96 well round bottom plates, and, then incubated in staining buffer (PBS, phosphate buffered saline; 1% BSA, bovine serum albumin; and 0.1% sodium azide) for 20 minutes to block non-specific binding. Cells were resuspended in staining buffer containing 100 nM to 1 nM variant immunomodulatory protein in 50 μL. Mean Fluorescence Intensity (MFI) was calculated for each transfectant and negative parental line with Cell Quest Pro software (Becton Dickinson, USA) or a Hypercyt flow cytometer (Intellicyte, USA).
as §1

human CTLA-4 [7] = biological target: T2, human CTLA-4; experiment: flow cytometry, Expi293 cells with human CTLA-4
Excerpt: as §1

Molecule: variant ICOSL ECD-Fc M10I, S13G, N52H, N57Y, D77G, V110A, H129P, I143V, F172S, V193M, C198R (Fc fusion)
MFI [3]: 6000 MFI

B1: variant ICOSL ECD-Fc N52H/N57Y/Q100R/F172S, G4S linker, Fc C220S/L234A/L235E/G237A (SEQ ID NO: 40) (Fc fusion)
chain: DTQEKEVRAMVGSDVELSCACPEGSRFDLNDVYVYWQTSESKTVVTYHIPQHSSLEYVDSRYRNRALMSPAGMLRGDFSLRLFNVTPQDEQKFHCLVLSRSLGFQEVLSVEVTLHVAANFSVPVVSAPHSPSQDELTFTCTSINGYPRPNVYWINKTDNSLLDQALQNDTVSLNMRGLYDVVSVLRIARTPSVNIGCCIENVLLQQNLTVGSQTGNDIGERDKITENPVSTGEKNAATGGGGSEPKSSDKTHTCPPCPAPEAEGAPSVFLFPPKPKDTLMISRTPEVTCVVVDVSHEDPEVKFNWYVDGVEVHNAKTKPREEQYNSTYRVVSVLTVLHQDWLNGKEYKCKVSNKALPAPIEKTISKAKGQPREPQVYTLPPSREEMTKNQVSLTCLVKGFYPSDIAVEWESNGQPENNYKTTPPVLDSDGSFFLYSKLTVDKSRWQQGNVFSCSVMHEALHNHYTQKSLSLSPGK
notes: Made in 293 cells; Fc or allotypes thereof
MFI (ΔWT) (human CD28): 12.9 fold vs WT
MFI (ΔWT) (human ICOS [6]): 1.4 fold vs WT
MFI (ΔWT) (human CTLA-4 [7]): 22.7 fold vs WT

The remaining lines, values ahead:

MFI (human CD28 (human)): 94200 MFI
MFI (ΔWT) (human CD28 (human)): 54.5 fold vs WT
MFI (human ICOS [1]): 143000 MFI
MFI (human CTLA-4 [2]): 368000 MFI
MFI (ΔWT) (human CTLA-4 [2]): 48.6 fold vs WT
Molecule: ICOSL ECD Truncation #8 with N207G/L208G and N52H/N57Y/Q100R/C198R and Y151H (from UniProt O75144 19-224) (Fc fusion)

IC50 [4]: 2.5 nM
IC50 [5]: 2.8 nM
Molecule: belatacept (Fc fusion)

MFI (ΔWT) (human CD28): 13.4 fold vs WT
MFI (ΔWT) (human ICOS [6]): 1.3 fold vs WT
MFI (ΔWT) (human CTLA-4 [7]): 17.1 fold vs WT
B2: variant ICOSL ECD-Fc N52H/N57Y/Q100P, G4S linker, Fc C220S/L234A/L235E/G237A (SEQ ID NO: 40) (Fc fusion)
chain: B1 chain with R100P, S172F
notes: as for B1
